Data as given in paper PMC7615752, “The histone chaperone SPT2 regulates chromatin structure and function in Metazoa” (Nature structural & molecular biology, 2023).

Molecular target: T1, recombinant histone H3.1–H4 tetramer (NEB, M2509S) (UniProt P68431 1-136; P62805 1-103)
T1 construct: histone H3.1 of the recombinant H3.1–H4 tetramer; histone H4 of the recombinant H3.1–H4 tetramer; As I recall the NEB product is the human tetramer; also called H3–H4; histone H3–H4; source: bought: NEB, M2509S (recombinant); copies: 2 + 2
Assay: pull-down; 20 pmol recombinant H3.1–H4 tetramer covalently coupled to NHS-activated magnetic beads; 5 pmol full-length SPT2 in 20 mM Tris–HCl pH 8.0, 500 mM NaCl, 0.1% Triton X-100, 0.1 mM TCEP, 1.5 h at 4 °C; washes with 700 or 800 mM NaCl
Conditions: both partners purified

binding result: binds
B1: HsSPT2, full-length (human SPT2), His6-tagged (natural protein)
chain: MDFREILMIASKGQGVNNVPKRYSLAVGPPKKDPKVKGVQSAAVQAFLKRKEEELRRKALEEKRRKEELVKKRIELKHDKKARAMAKRTKDNFHGYNGIPIEEKSKKRQATESHTSQGTDREYEMEEENEFLEYNHAESEQEYEEEQEPPKVESKPKVPLKSAPPPMNFTDLLRLAEKKQFEPVEIKVVKKSEERPMTAEELREREFLERKHRRKKLETDGKLPPTVSKKAPSQKESVGTKLSKGSGDRHPSSKGMPLPHAEKKSRPSMANEKHLALSSSKSMPGERIKAGSGNSSQPSLREGHDKPVFNGAGKPHSSTSSPSVPKTSASRTQKSAVEHKAKKSLSHPSHSRPGPMVTPHNKAKSPGVRQPGSSSSSAPGQPSTGVARPTVSSGPVPRRQNGSSSSGPERSISGSKKPTNDSNPSRRTVSGTCGPGQPASSSGGPGRPISGSVSSARPLGSSRGPGRPVSSPHELRRPVSGLGPPGRSVSGPGRSISGSIPAGRTVSNSVPGRPVSSLGPGQTVSSSGPTIKPKCTVVSETISSKNIISRSSNGQMNGMKPPLSGYRAAQGPQRLPFPTGYKRQREYEEEDDDDDEYDSEMEDFIEDEGEPQEEISKHIREIFGYDRKKYKDESDYALRYMESSWKEQQKEEAKSLRLGMQEDLEEMRREEEEMQRRRAKKLKRR
notes: human SPT2 (gene SPTY2D1), full length; source: E. coli Rosetta 2(DE3) pLysS BL21, purified (NiNTA, Flag M2 beads, Ulp1 cleavage); not shown: 2xFlag-SUMO, N-terminal, cleaved; His6, C-terminal, kept
